# Assay results taken from patent US20200383981.
# Test system: wild-type human IDO1
substance,measurement,value
human Src Y530F,"tyrosine phosphorylation of human IDO1 Tyr249 (ITIM2), western blot of SW837 IDO1WT lysate",Expression of human Src Y530F in SW837 IDO1WT cells was shown to enhance tyrosine phosphorylation of human IDO1 Tyr249 (ITIM2)
